These results are taken from the supplement of paper PMC9112550, “Optimization of the antimicrobial peptide Bac7 by deep mutational scanning” (BMC Biology, 2022).

The series concerns Escherichia coli TOP10. The experiment in a line: shrunken log2 fold change of peptide-encoding DNA abundance (4.5 h post-induction vs induction); higher = less antimicrobial activity (less host growth inhibition). The conditions noted are these: time post-induction: 4.5 h; library: site-saturation at positions 5, 18, 19, 20.
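Also: peptides expressed intracellularly from a pBAD plasmid library in pooled LB shake-flask culture, induced with 0.3% L-arabinose, DNA abundance read by NGS, three biological replicates, DESeq2 with apeglm shrinkage.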

Turning to RRIRSRPPRLPRPRPRPQDPPRP, the “shrunken log2 fold change” value was determined as 0.122.
The same measure for RRIRCRPPRLPRPRPRPTWFPRP: 0.141.
Then RRIRVRPPRLPRPRPRPGEPPRP, with 0.043; and RRIRNRPPRLPRPRPRPKRLPRP, with -0.0121; and RRIRIRPPRLPRPRPRPYSLPRP, with -0.607.
Then RRIRRRPPRLPRPRPRPSMEPRP, with 0.0198; and RRIRNRPPRLPRPRPRPRLPPRP, with 0.245.
Turning to RRIRERPPRLPRPRPRPPTIPRP, the “shrunken log2 fold change” value is -0.0452.
The same measure for RRIRPRPPRLPRPRPRPQAMPRP: 0.132.
Then RRIRYRPPRLPRPRPRPAKIPRP, with -0.0227; and RRIRERPPRLPRPRPRPGQCPRP, with 0.0236.
Then RRIRTRPPRLPRPRPRPMMMPRP, with 2.94.
For RRIRQRPPRLPRPRPRPSHDPRP, the “shrunken log2 fold change” value is -0.104.
RRIRCRPPRLPRPRPRPQWSPRP: the “shrunken log2 fold change” value is -0.169.
For the sequence RRIRDRPPRLPRPRPRPRWFPRP, the “shrunken log2 fold change” value is -0.0867.
Then RRIRDRPPRLPRPRPRPPVRPRP, with 0.0542; and RRIRMRPPRLPRPRPRPRSNPRP, with 0.13; and RRIRPRPPRLPRPRPRPTKRPRP, with 0.265.
The same measure for RRIRGRPPRLPRPRPRPWGRPRP: 0.413; for RRIRDRPPRLPRPRPRPMAAPRP: 0.0982.
The same measure for RRIRDRPPRLPRPRPRPTTRPRP: 0.542; for RRIRCRPPRLPRPRPRPEETPRP: 0.143.
RRIRMRPPRLPRPRPRPTNFPRP: the “shrunken log2 fold change” value is -0.0912.
The same measure for RRIRIRPPRLPRPRPRPVMEPRP: -0.194; for RRIRTRPPRLPRPRPRPLPGPRP: 0.164.
Then RRIRQRPPRLPRPRPRPTGDPRP, with 0.349; and RRIRIRPPRLPRPRPRPHRCPRP, with -0.0635.
The same measure for RRIRNRPPRLPRPRPRPHFSPRP: 0.0053; for RRIRTRPPRLPRPRPRPSFSPRP: -0.262.
Regarding RRIRSRPPRLPRPRPRPVSWPRP, the “shrunken log2 fold change” value was 0.437.
The same measure for RRIRWRPPRLPRPRPRPCFAPRP: 0.263.
Then RRIRKRPPRLPRPRPRPWPNPRP, with 0.0221; and RRIRRRPPRLPRPRPRPANDPRP, with 0.275.
The same measure for RRIRQRPPRLPRPRPRPISQPRP: 0.0474.
As to RRIRQRPPRLPRPRPRPICWPRP, the “shrunken log2 fold change” value was 0.0153.
Then RRIRGRPPRLPRPRPRPFRAPRP, with 0.209.
The same measure for RRIRMRPPRLPRPRPRPAHRPRP: 0.444; for RRIRMRPPRLPRPRPRPDCDPRP: 0.0709; for RRIRQRPPRLPRPRPRPHAFPRP: -0.0738.
The same measure for RRIRERPPRLPRPRPRPYWLPRP: -0.294.
On to RRIRHRPPRLPRPRPRPEKPPRP, for which the “shrunken log2 fold change” value is -0.01.
The same measure for RRIRERPPRLPRPRPRPDTGPRP: -0.161; for RRIRHRPPRLPRPRPRPQPPPRP: 0.373.
As to RRIRARPPRLPRPRPRPNMAPRP, the “shrunken log2 fold change” value was 0.114.
Take RRIRDRPPRLPRPRPRPPVLPRP: the “shrunken log2 fold change” value was 0.267.
Consider RRIRMRPPRLPRPRPRPDSTPRP, for which the “shrunken log2 fold change” value was determined as 1.09.
The same measure for RRIRQRPPRLPRPRPRPMCWPRP: -0.00818; for RRIRYRPPRLPRPRPRPGLWPRP: 0.032.
Then RRIRMRPPRLPRPRPRPICYPRP, with -0.119.
The same measure for RRIRCRPPRLPRPRPRPEIKPRP: 0.0171.
Take RRIRCRPPRLPRPRPRPWYWPRP: the “shrunken log2 fold change” value is -0.286.
Consider RRIRWRPPRLPRPRPRPPVMPRP, for which the “shrunken log2 fold change” value is 0.00935.
Turning to RRIRERPPRLPRPRPRPNTSPRP, the “shrunken log2 fold change” value came out at 0.37.
For RRIRDRPPRLPRPRPRPWSCPRP, the “shrunken log2 fold change” value was -0.188.
The same measure for RRIRIRPPRLPRPRPRPSYPPRP: -0.56; for RRIRYRPPRLPRPRPRPLYYPRP: -1.44.
In the case of RRIRHRPPRLPRPRPRPCTGPRP, the “shrunken log2 fold change” value was determined as 0.00233.
Then RRIRARPPRLPRPRPRPDRFPRP, with 0.414.
Then RRIRFRPPRLPRPRPRPSHKPRP, with -0.121; and RRIRPRPPRLPRPRPRPYFSPRP, with -0.31.
The same measure for RRIRVRPPRLPRPRPRPEGSPRP: 0.464.
On to RRIRFRPPRLPRPRPRPAETPRP, for which the “shrunken log2 fold change” value was 0.0238.
Then RRIRYRPPRLPRPRPRPRRHPRP, with -0.103; and RRIRGRPPRLPRPRPRPGHHPRP, with 0.16.
With RRIRTRPPRLPRPRPRPNAHPRP, the “shrunken log2 fold change” value was -0.102.
For the sequence RRIRDRPPRLPRPRPRPRIHPRP, the “shrunken log2 fold change” value is -0.563.
Then RRIRSRPPRLPRPRPRPQIRPRP, with 0.267; and RRIRVRPPRLPRPRPRPWVFPRP, with 0.284; and RRIRCRPPRLPRPRPRPTRNPRP, with 0.444.
The same measure for RRIRCRPPRLPRPRPRPSMHPRP: -0.346; for RRIRDRPPRLPRPRPRPGPVPRP: 0.545; for RRIRTRPPRLPRPRPRPPNEPRP: 0.207.
Regarding RRIRGRPPRLPRPRPRPGHMPRP, the “shrunken log2 fold change” value was -0.129.
The same measure for RRIRNRPPRLPRPRPRPKQGPRP: 0.0554; for RRIRDRPPRLPRPRPRPDMYPRP: 0.214.
With RRIRDRPPRLPRPRPRPFSTPRP, the “shrunken log2 fold change” value is -0.0877.
Then RRIRPRPPRLPRPRPRPRCQPRP, with 0.273; and RRIRPRPPRLPRPRPRPEVKPRP, with -0.00169; and RRIRNRPPRLPRPRPRPKCHPRP, with 0.0244.
Then RRIRPRPPRLPRPRPRPNHMPRP, with -0.319.
The same measure for RRIRQRPPRLPRPRPRPVRCPRP: 0.841; for RRIRFRPPRLPRPRPRPIIMPRP: -0.799; for RRIRWRPPRLPRPRPRPCYPPRP: -0.466.
On to RRIRVRPPRLPRPRPRPWIAPRP, for which the “shrunken log2 fold change” value amounted to 0.201.
Then RRIRCRPPRLPRPRPRPQHEPRP, with 0.0354.
Then RRIRTRPPRLPRPRPRPGLFPRP, with 0.458; and RRIRSRPPRLPRPRPRPCEVPRP, with -0.333.
The same measure for RRIRVRPPRLPRPRPRPAWAPRP: 0.255; for RRIRVRPPRLPRPRPRPKQYPRP: -0.558; for RRIRNRPPRLPRPRPRPGQVPRP: 0.0381.
For the sequence RRIRNRPPRLPRPRPRPGCNPRP, the “shrunken log2 fold change” value was -0.642.
The same measure for RRIRVRPPRLPRPRPRPYWSPRP: 0.000469.
The same measure for RRIRARPPRLPRPRPRPENMPRP: 0.242; for RRIRWRPPRLPRPRPRPADRPRP: 0.0754; for RRIRDRPPRLPRPRPRPMKNPRP: -0.0366.
RRIRVRPPRLPRPRPRPFNAPRP: the “shrunken log2 fold change” value is -0.563.
The same measure for RRIRDRPPRLPRPRPRPKARPRP: 0.132.
Then RRIRMRPPRLPRPRPRPRRFPRP, with 0.339; and RRIRKRPPRLPRPRPRPNATPRP, with 1.16.
The same measure for RRIRMRPPRLPRPRPRPDFDPRP: 0.15; for RRIRWRPPRLPRPRPRPKCSPRP: 0.0308; for RRIRIRPPRLPRPRPRPFYQPRP: 0.234.
In the case of RRIRMRPPRLPRPRPRPHWMPRP, the “shrunken log2 fold change” value was -0.137.
Then RRIRVRPPRLPRPRPRPMHYPRP, with -0.266.
Then RRIRFRPPRLPRPRPRPMRDPRP, with 0.109.
Turning to RRIRVRPPRLPRPRPRPGKHPRP, the “shrunken log2 fold change” value was -0.391.
The same measure for RRIRVRPPRLPRPRPRPYQEPRP: 0.00202; for RRIRLRPPRLPRPRPRPQDMPRP: -0.169; for RRIRSRPPRLPRPRPRPIEDPRP: 0.0359.
Then RRIRCRPPRLPRPRPRPRLHPRP, with -0.0571; and RRIRMRPPRLPRPRPRPTMLPRP, with 0.0475.
The same measure for RRIRMRPPRLPRPRPRPINMPRP: -0.0607; for RRIRGRPPRLPRPRPRPLGHPRP: 0.595.
In the case of RRIRLRPPRLPRPRPRPEVDPRP, the “shrunken log2 fold change” value was -0.0786.
The same measure for RRIRWRPPRLPRPRPRPINLPRP: -0.748; for RRIRLRPPRLPRPRPRPIDSPRP: -0.0384; for RRIRLRPPRLPRPRPRPVDAPRP: 0.243.
Then RRIRIRPPRLPRPRPRPPPPPRP, with 0.714; and RRIRIRPPRLPRPRPRPKWMPRP, with -0.178; and RRIRMRPPRLPRPRPRPENDPRP, with 3.77.
Then RRIRMRPPRLPRPRPRPNSDPRP, with 0.0685.
With RRIRYRPPRLPRPRPRPGGCPRP, the “shrunken log2 fold change” value was found to be 0.0169.
Then RRIRSRPPRLPRPRPRPTHTPRP, with 0.106.
The same measure for RRIRGRPPRLPRPRPRPALWPRP: 0.985; for RRIRGRPPRLPRPRPRPQSLPRP: 0.251.
